This note sets out measurements from patent US20250129419A1, “REAGENTS FOR LABELING BIOMOLECULES AND USES THEREOF” (Ultima Genomics, Inc., priority 2022, published 2025).

A short description of series [1]: evaluation of dye-labeled nucleotides including guanine (sequencing assay). The note with it: lacks the hyp10 linker. As to the method: Nucleotides including guanine or analogs thereof may perform more poorly in sequencing applications (e.g., as described herein) in base-calling accuracy. This may be related to photoinduced electron transfer from the nucleobase to a dye linked to the nucleobase, which may quench signal emitted by the dye and thus less dynamic range of signal. Accordingly, various dye-labeled nucleotides including guanine or analogs thereof are prepared and evaluated as provided herein. Examples of such dye-labeled nucleotides include:
Several of the structures shown above include the hyp10 linker which includes the sequence Gly-Hyp-Hyp-Hyp-Hyp-Hyp-Hyp-Hyp-Hyp-Hyp-Hyp from the N-terminal end. […] The remaining dye-labeled nucleotides are evaluated in a sequencing assay, as described herein. […] Additional structures including different numbers of hydroxyprolines, including hyp20 and hyp30 moieties, may also be incorporated into fluorescent labeling reagents.

Series [2] has as its target bovine serum albumin (BSA) (Bos taurus, UniProt P02769). Description: fluorescence of BSA labeled with different ATTO 532 labeling moieties. The note with it: BSA labeled with ATTO 532, FIG. 16. From the text: The effect of functional separation between an optically detectable moiety (e.g., fluorescent dye) and a substrate was investigated using bovine serum albumin (BSA). BSA was fluorescently labeled with ATTO 532 according to the following schemes: in the absence of a linker providing separation between the BSA and ATTO 532 moieties (“Atto532”), using PEG16 as a linker to provide separation between the BSA and ATTO 532 moieties (“Atto532-PEG16”), using a hyp10 moiety to provide separation between the BSA and ATTO 532 moieties (“Atto532-hyp10”), and using a hyp30 moiety to provide separation between the BSA and ATTO 532 moieties (“Atto532-hyp30”). Labeled BSA was purified from free dye using Millipore centrifugal filters.

bovine serum albumin (BSA), sequence (P02769 25-607): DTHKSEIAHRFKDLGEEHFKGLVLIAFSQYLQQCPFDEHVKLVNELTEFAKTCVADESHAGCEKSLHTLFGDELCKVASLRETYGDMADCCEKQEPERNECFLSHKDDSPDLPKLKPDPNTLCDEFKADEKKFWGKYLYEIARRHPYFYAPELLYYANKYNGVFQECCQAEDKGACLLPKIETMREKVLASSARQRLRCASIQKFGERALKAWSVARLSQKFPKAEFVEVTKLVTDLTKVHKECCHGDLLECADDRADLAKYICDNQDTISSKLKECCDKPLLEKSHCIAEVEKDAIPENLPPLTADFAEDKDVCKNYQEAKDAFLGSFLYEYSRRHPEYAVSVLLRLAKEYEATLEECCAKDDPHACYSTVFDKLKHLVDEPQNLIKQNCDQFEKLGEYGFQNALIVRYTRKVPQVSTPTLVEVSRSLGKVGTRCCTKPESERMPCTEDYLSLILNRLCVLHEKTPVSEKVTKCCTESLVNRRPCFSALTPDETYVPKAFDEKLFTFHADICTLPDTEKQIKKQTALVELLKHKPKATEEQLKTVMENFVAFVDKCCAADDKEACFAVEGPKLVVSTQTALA

As for `CCN1CCCc2cc3c(cc21)C(C)(C)C1=CC(=[N+](C)C)C=CC1=C3c1ccccc1C(=O)N(C)CCCC(=O)NC(CS(=O)(=O)[O-])C(=O)NCCSSCCC(=O)NCC#Cc1cn([C@H]2C[C@@H](O)[C@@H](COP(=O)(O)OP(=O)(O)OP(=O)(O)O)O2)c2nc(N)[nH]c(=O)c12` (some centres unmarked) [G4], the quenching entry in series [1] is “highly quenched”.

For the compound “Atto532-PEG16: BSA labeled with ATTO 532 using PEG16 as a linker [reference compound]”, the “self-quenching on BSA protein” value in series [2] is listed as “did not improve quenching over ATTO 532 alone”.
